Binding result, IC50 and Ki data for 4 molecules are collected here from patent publication US20200040048A1 (published 2020).

The target of assay [1] is T1, zebrafish MDMX protein (residues 15-129, L46V/V95L) (zebrafish, UniProt Q7ZUW7 15-129).
T1 construct: Purified on Ni-NT agarose, so it probably carries a His tag from pET15b
T1 sequence (looked up): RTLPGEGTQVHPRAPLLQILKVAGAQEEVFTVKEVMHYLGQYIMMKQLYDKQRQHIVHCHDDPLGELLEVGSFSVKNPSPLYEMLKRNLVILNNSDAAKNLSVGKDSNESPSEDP
The experiment in a line: X-ray co-crystallography, complex refined to 2.3 Å.

For a further assay, the target named is T2, MDM2 (UniProt Q00987 1-138, limits assumed).
T2 construct: also called MDM2 (41 kD); HDM2
T2 sequence (Q00987 1-138 limits assumed): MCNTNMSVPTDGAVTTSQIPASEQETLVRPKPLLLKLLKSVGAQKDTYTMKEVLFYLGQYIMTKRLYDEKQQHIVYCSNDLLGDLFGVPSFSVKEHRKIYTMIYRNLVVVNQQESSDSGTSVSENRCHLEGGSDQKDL
The experiment in a line: competitive FP vs FAM-labeled linear peptide, MDM2 41 kD; grade, scale in paragraph 603.

The next assay deals with T3, MDMX (40 kD), O15151.
T3 chain: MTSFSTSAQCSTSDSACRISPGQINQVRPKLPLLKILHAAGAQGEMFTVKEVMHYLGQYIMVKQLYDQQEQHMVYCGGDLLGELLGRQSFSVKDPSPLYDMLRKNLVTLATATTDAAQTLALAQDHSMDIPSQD
The assay is described as follows: competitive FP on MDMX, FAM-labeled linear peptide displaced; Ki grade, + = >1000 nM. The note with it: remark: other sources report otherwise.

Bridge positions count the residues as written; N and C are the ends. Square brackets hold non-standard residues; d marks the D form. dPhe(4-CF3) = N[C@H](Cc1ccc(C(F)(F)F)cc1)C(=O)O; R8 = C=CCCCCCC[C@@](C)(N)C(=O)O; R5 = C=CCCC[C@@](C)(N)C(=O)O; hLeu = CC(C)CC[C@H](N)C(=O)O; S5 = C=CCCC[C@](C)(N)C(=O)O; Cou6 = not defined here; Cou8 = not defined here; βAla = NCCC(=O)O

B1: Ac-QSQQTF%r8NLWRLL%QN-NH2 (peptide)
peptide: QSQQTFANLWRLLAQN
modifications: not fully specified; N-terminal acetyl; C-terminal amide; %r8 at position 7 and % at position 14 are crosslinked alpha-methyl non-natural amino acids forming the i, i+7 aliphatic staple (the token '%' alone is not defined in the filing)
As for B1, the binding result in assay [1] is “binds”.

B2: peptidomimetic macrocycle SP 755 (peptide)
peptide: Ac-[dT][dA][dW][dY][dA][dN][dPhe(4-CF3)][dE][R5][dL][dL][dR][R5][dA]-NH2
modifications: staple 9-13
notes: also called Ac-tawyanf4CF3e$r5llr$r5a-NH2
As a reminder, the IC50 is the concentration that inhibits the measured activity by half. Read a high IC50 as a need for much substance. On to B2, for which, in the assay with MDM2, the IC50 is ≤ 10 nM.

The term Ki denotes a dissociation constant, usually derived from enzyme kinetics or from competition with a known ligand. Cou8-[βAla]LTF[R8]EYWAQ[hLeu][S5]SAA-NH2 (staple 5-12; reading uncertain) [SP447 Cou8BaLTF$r8EYWAQhL$SAA-NH2]: the Ki in the assay with MDMX (40 kD), O15151 is > 1000 nM.

With Cou6-[βAla]LTF[R8]EYWAQ[hLeu][S5]SAA-NH2 (staple 5-12; reading uncertain) [SP446 Cou6BaLTF$r8EYWAQhL$SAA-NH2], the Ki in the assay with MDMX (40 kD), O15151 was > 1000 nM.
